# From PMC6713497, “Dimeric structures of quinol-dependent nitric oxide reductases (qNORs) revealed by cryo–electron microscopy” (Science Advances, 2019)
# B1: AxqNOR-BRIL (quinol-dependent nitric oxide reductase from Alcaligenes xylosoxidans fused with apocytochrome b562) (enzyme)
# chain: not shown
# Biological target: the molecule itself
# Assay: cryo-EM structure; single-particle cryo-EM of detergent-solubilised qNOR-BRIL (50 mM tris, 150 mM NaCl, 0.05% DTM; wild type pH 7.0 at 3 mg/ml, Val495Ala pH 7.5 at 5 mg/ml), C2 symmetry imposed
protein,measurement,value
B1,stoichiometry N,2
